For this experiment, the target named is T1, Lup an 1 (Lupinus angustifolius (by the …, UniProt F5B8W3)).
T1 construct: Lup an 1, lupin β-conglutin, a 7S seed storage globulin of the vicilin-like proteins; found by LC-MS/MS of the ~55 kDa band immunocaptured from crude lupine extract; UniProt F5B8W3.1; size distribution printed as 55 to 61 kDa; Never purified: it stood in a crude lupine protein extract in every experiment; Seen as a band of ~55 kDa; also called lupin β-conglutin; lupine allergen Lup an 1; source: …
T1 sequence (F5B8W3 31-637): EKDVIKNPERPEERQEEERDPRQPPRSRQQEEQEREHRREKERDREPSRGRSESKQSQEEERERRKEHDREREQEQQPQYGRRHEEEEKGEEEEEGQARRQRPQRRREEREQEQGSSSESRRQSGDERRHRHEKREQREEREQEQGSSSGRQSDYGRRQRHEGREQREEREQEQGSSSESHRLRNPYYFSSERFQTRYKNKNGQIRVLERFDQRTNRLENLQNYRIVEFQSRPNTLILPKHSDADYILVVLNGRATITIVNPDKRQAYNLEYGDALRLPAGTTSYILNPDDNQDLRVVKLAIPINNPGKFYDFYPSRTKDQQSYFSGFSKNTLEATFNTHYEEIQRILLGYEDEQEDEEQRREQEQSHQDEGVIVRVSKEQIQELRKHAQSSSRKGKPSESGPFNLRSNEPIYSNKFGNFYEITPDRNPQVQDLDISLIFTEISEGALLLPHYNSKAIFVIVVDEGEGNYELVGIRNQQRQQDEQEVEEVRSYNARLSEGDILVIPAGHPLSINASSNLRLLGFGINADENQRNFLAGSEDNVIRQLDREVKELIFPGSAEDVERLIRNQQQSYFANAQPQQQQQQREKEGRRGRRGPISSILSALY
Kind of experiment: ELISA; crude lupine extract (50 μg/mL) coated overnight at 4 °C; Nbs serially diluted in PBS, 1 h at room temperature; detected by mouse anti-His IgG and HRP goat anti-mouse IgG; apparent affinity = concentration at half of the maximum signal. The note with it: one partner purified. Background: ELISA stands for enzyme-linked immunosorbent assay.

B1: Nb B91 (His- and HA-tagged) (VHH)
VHH: QVQLQESGGGLVQAGDSLRLSCASSGRTFSSYGVGWFRQAPGKEREFVAAISWNGGSASYADSVKGRFTVSRDNAKNTVYLQMNSLQPEDTADYYCAAKVEALYGTDYFRDYDYWGQGTQVTVSS
notes: also called Nb91; source: E. coli WK6 (pMECS), periplasmic, purified (IMAC, SEC)
For orientation: EC50 means the midpoint of the concentration-response curve. Consider B1, for which the EC50 amounted to 9 nM.

B2: Nb B66 (His- and HA-tagged) (VHH)
VHH: QVQLQESGGGLVQAGGSLRLSCAASGRTFSSYGIGWFRQAPGKEREFVASISWSGGSTYYADSVKGRFTISRDNAKNTVYLQMNSLKPEDTAVYYCAAVIEAIDFVPVEYDYWGQGTQVTVSS
notes: also called Nb66; source: E. coli WK6 (pMECS), periplasmic, purified (IMAC, SEC)
Regarding B2, the EC50 is 180 nM.

B3: Nb B42 (His- and HA-tagged) (VHH)
VHH: QVQLQESGGGLVQAGGSLRLSCAASGRTFSSYAMGWFRQAPGKEREFVAAISWSGGSTYYADSVKGRFTISRDNAKNTVYLQMNSLKPEDTAVYYCAVDQWILEVNAAFQADYWGQGTQVTVSS
notes: also called Nb42; source: E. coli WK6 (pMECS), periplasmic, purified (IMAC, SEC)
As to B3, the EC50 was found to be 24 nM.

B4: Nb B69 (His- and HA-tagged) (VHH)
VHH: QVQLQESGGGLVQPGGSLRLSCVSSERTFSPYTMAWFRQAPGKERDFVADIRWGDGTTRYADSVKGRFTISRDNAKNTVFLQTNSLTPEDTAVYYCAHKTWYPRSFQAASYDFWGQGTQVTVSS
notes: also called Nb69; source: E. coli WK6 (pMECS), periplasmic, purified (IMAC, SEC)
On to B4, for which the EC50 came out at 325 nM.

B5: Nb B50 (His- and HA-tagged) (VHH)
VHH: QVQLQESGGGLVQAEGSLRLSCTVSGRTFSRDAMGWFRRPPGKEREFVAAISWNGASTSYADSVKGRFTVSRDNAKNTSLLQMNSLKPEDTAVYYCATYWSSAIPPLAAATSATYWGQGTQVTVSS
notes: also called Nb50; source: E. coli WK6 (pMECS), periplasmic, purified (IMAC, SEC)
As for B5, the EC50 worked out at 16 nM.

B6: Nb B187 (His- and HA-tagged) (VHH)
VHH: QVQLQESGGGLVQAGGSLRLSCAASGRTFSGARMGWFRQAPGKEREFVAAIRWITGSTYYTDSVKGRFTISRDIAKNTQYLQMNSLKPEDTARYYCAAGEYYGGSYSDTEKYDYWGQGTQVTVSS
notes: From an immune alpaca library raised against crude lupine protein extract; also called Nb187; B187HA; source: E. coli WK6 (pMECS), periplasmic, purified (IMAC, SEC)
For the molecule B6, the EC50 is 14 nM.

B7: Nb B165 (His- and HA-tagged) (VHH)
VHH: QVQLQESGGGLVQAGGSLRLSCAASTRTFSSDAMGWFRQAPGKEREFVAAISISTYYADSVKGRFTISRDNAKNTMYLQMNRLKPEDTAVYYCAVKPFYGGIRYPNEYPYWGQGTQVTVSS
notes: also called Nb165; source: E. coli WK6 (pMECS), periplasmic, purified (IMAC, SEC)
As to B7, the EC50 came to 31 nM.

B8: Nb B157 (His- and HA-tagged) (VHH)
VHH: QVQLQESGGGLVQAGGSLRLSCEASGRTNTKYAWGWFRQAPGKEREFVASINWSGTLINYADSVKGRFTISRDDAKNTVYLEMSSLRPEDTAVYSCAVRYYTGTYYYTTSPDNYKHWAQGTQVTVSS
notes: also called Nb157; source: E. coli WK6 (pMECS), periplasmic, purified (IMAC, SEC)
With B8, the 50% effective concentration (EC50) came to 680 nM.

B9: Nb B163 (His- and HA-tagged) (VHH)
VHH: QVQLQESGGGLAQAGGSLTLSCAASGRTFSIPTMGWFRQAPGKEREFVAAIGRTTAYTGSVKGRFTISRDSAKNTVSLQMNSLNIEDTGVYYCASSQSPWSSPPLTENMYAYWGQGTQVTVSS
notes: also called Nb163; source: E. coli WK6 (pMECS), periplasmic, purified (IMAC, SEC)
Regarding B9, the EC50 was determined as 45 nM.

B10: Nb B83 (His- and HA-tagged) (VHH)
VHH: QVQLQESGGGLVQPGGSLRLSCAASGSIFSRNDMGWYRQAVGEARILVATITSGGVTTYADSVKGRFTISRDNAKNTVYLQMNSLKPEDTAVYYCNTLTNRRNAYWGQGTQVTVSS
notes: also called Nb83; B83HA; source: E. coli WK6 (pMECS), periplasmic, purified (IMAC, SEC)
As for B10, the EC50 was found to be 1 nM.

B11: Nb B167 (His- and HA-tagged) (VHH)
VHH: QVQLQESGGGLVQAGGSLRLSCAASRRTSRNYDMTWFRQFPGTEREFVAFISWGGSRIYYADSVKGRFTISRDNAKDTVYLQMNSLKPEDTAVYYCAADPRLVRGRYESDYWGQGTQVTVSS
notes: also called Nb167; source: E. coli WK6 (pMECS), periplasmic, purified (IMAC, SEC)
With B11, the EC50 amounted to 13 nM.

B12: Nb B40 (His- and HA-tagged) (VHH)
VHH: QVQLQESGGGLVQAGESLRLSCATTEHANQMYAVGWFRQAPGKEREFVASINWSGTRTEHAESVKGRFTISKINPHDTVYLQMNSLKPEDTAVYACAARYYSGTYTKTDNSNDYDYWGQGTQVTVSS
notes: Detecting nanobody of the final sandwich ELISA; also called Nb40; B40HA; source: E. coli WK6 (pMECS), periplasmic, purified (IMAC, SEC)
B12: the EC50 is 8 nM.

For the origin of these results see PMC8536012, “Selection of Specific Nanobodies against Lupine Allergen Lup an 1 for Immunoassay Development” (Foods, 2021).
